Laboratory results published in patent US11994512B2, “Single-cell genomic methods to generate ex vivo cell systems that recapitulate in vivo biology with improved fidelity” (Massachusetts Institute of Technology, priority 2018, dated 2024).

Test system: intracellular proteome of ENR+CD and ENR organoids
Experiment: LC-MS/MS TMT proteomics of ENR+CD versus ENR organoids
Type: cell-based, C57BL/6 mice
Conditions: for Average logFC: ENR+CD versus ENR organoids, sample pairs in aggregate (n=4, 2 technical replicates from two biological donors); for M1-1 Log2 Median Normalized / M1-2 Log2 Median Normalized / M2-1 Log2 Median Normalized / M2-2 Log2 Median Normalized: protein abundance ratio ENR+CD versus ENR organoids, LC-MS/MS TMT proteomics; for M1-1 Log2 Median Normalized: sample pair M1-1; for M1-2 Log2 Median Normalized: sample pair M1-2; for M2-1 Log2 Median Normalized: sample pair M2-1; for M2-2 Log2 Median Normalized: sample pair M2-2; for change: up = enriched in ENR+CD, down = enriched in ENR, FDR<0.05 and log fold change cut-off

Row | Molecule | Average logFC | M1-1 Log2 Median Normalized | M1-2 Log2 Median Normalized | M2-1 Log2 Median Normalized | M2-2 Log2 Median Normalized | change
1 | Q5DQR4 (protein, UniProt Q5DQR4 1-1185, looked up, full-length) MKKFNFRKVLDGLTASSPGSGSSSGSNSGGAGSGSVHPGGTAGLPREEIQESLTSDYFQICKTVRHGFPYQPTALAFDPVQKILAIGTRTGAIRILGRPGVDCYCQHESGAAVLQLQFLINEGALVSASSDDTLHLWNLRQKRPAILHSLKFNRERITYCHLPFQSKWLYVGTERGNTHIVNIESFILSGYVIMWNKAIELSTKTHPGPVVHLSDSPRDEGKLLIGYENGTVVFWDLKSKRAELRVYYDEAIHSIDWHHEGKQFMCSHSDGSLTLWNLKSPSRPFQTTVPHGKSQREGRKSESCKPILKVEYKTCRNSEPFIIFSGGLSYDKACRRPSLTIMHGKAITVLEMDHPIVEFLTLCETPYPNEFQEPYAVAVLLEKDLIVVDLTQTNFPIFENPYPMDIHESPVTCTAYFADCPPDLILVLYSIGVKHKKQGYSNKEWPVSGGAWNLGAQTYPEIIITGHADGTIKFWDASAMTLQMLYKLKTSKVFEKQKAGEGKQTCELVEEDPFAVQMIYWCPESRIFCVSGVSAYVIIYKFSRHEVTTEIVSLEVRLQCDVEDIITPEPETSPPFPDLSSQLPPSRSLSGSTNTVSSEGVTKDSIPCLSVKTRPVRMPPGYQADLVIQLVWVDGEPPQQITSLSISSAYGIVAFGNCTGLVVVDFIQKTVLLSMGTIDLYRSSDLYQRQPRSPRKNRQFIADNFCMRGLSNFYPDLTKRIRTSYQSLTELNDSPVPLELERCKSPTSDHVNGHCTSPTSQSCSSGKRLSSADVSKVNRWGPGRPPFRKAQSAACMEISLPVTTEETRENSYNRSRSSSISSIDKDSKEAITALYFMESFARKNDSTVSPCLFVGTSLGMVVLISLNLPSSDEQRFTEPVVVLPSGTFLSLKGAVLTFSCMDRTGSLMQPPYEVWRDPNNTDENEKTWKRKLVMNYSSSSQEMGDHQYTIICSEKQAKVFSLPSQTCLYVHNITETSFILQADVVVMCNSACLACFCANGHIMIMSLPSLRPMLDVNYLPLTDMRIARTFCFTNEGQALYLVSPTEIQRLTYSQEMCDNIQDMLGDLFTPIETPEAQNRGFLKGLFGGSGQTFDREELFGEASAGKASRSLAQHIPGPGSIEGMKGAAGGVMGELTRARIALDERGQRLGELEEKTAGMMTSAEAFSKHAHELMLKYKDKKWYQF | 1.147 | 1.316 | 0.966 | 1.1715 | 1.133 | up
2 | Q61263 (protein, UniProt Q61263 1-540, looked up, full-length) MSLRNRLSKSGENPEQDEAQKNFMDTYRNGHITMKQLIAKKRLLAAEAEELKPLFMKEVGCHFDDFVTNLIEKSASLDNGGCALTTFSILEEMKKNHRAKDLRAPPEQGKIFISRQSLLDELFEVDHIRTIYHMFIALLILFVLSTIVVDYIDEGRLVLEFNLLAYAFGKFPTVIWTWWAMFLSTLSIPYFLFQRWAHGYSKSSHPLIYSLVHGLLFLVFQLGVLGFVPTYVVLAYTLPPASRFILILEQIRLIMKAHSFVRENIPRVLNAAKEKSSKDPLPTVNQYLYFLFAPTLIYRDNYPRTPTVRWGYVAMQFLQVFGCLFYVYYIFERLCAPLFRNIKQEPFSARVLVLCVFNSILPGVLILFLSFFAFLHCWLNAFAEMLRFGDRMFYKDWWNSTSYSNYYRTWNVVVHDWLYYYVYKDLLWFFSKRFKSAAMLAVFALSAVVHEYALAICLSYFYPVLFVLFMFFGMAFNFIVNDSRKRPIWNIMVWASLFLGYGLILCFYSQEWYARQHCPLKNPTFLDYVRPRTWTCRYVF | 1.308 | 1.563 | 2.15 | 1.0245 | 0.494 | up
3 | Q60604 (protein, UniProt Q60604 1-715, looked up, full-length) MAQELQHPEFARAGQQAGLQVWRVEKLELVPVPQGAYGDFYVGDAYLVLHTTKSSRGFSYRLHFWLGKECSQDESTAAAIFTVQMDDYLGGKPVQSRELQGYESTDFVGYFKGGLKYKAGGVASGLNHVLTNDLTAKRLLHVKGRRVVRATEVPLSWESFNKGDCFIIDLGTEIYQWCGSSCNKYERLKASQVAIGIRDNERKGRSQLIVVEEGSEPSELMKVLGRKPELPDGDNDDDVVADISNRKMAKLYMVSDASGSMKVTLVAEENPFSMGMLLSEECFILDHGAAKQIFVWKGKNANPQERKTAMKTAEEFLQKMKYSTNTQIQVLPEGGETPIFKQFFKDWKDKDQSDGFGKVYITEKVAQIKQIPFDASKLHSSPQMAAQHNMVDDGSGGVEIWRVENSGRVQIDPSSYGEFYGGDCYIILYTYPRGQIIYTWQGANATRDELTMSAFLTVQLDRSLGGQAVQVRVSQGKEPAHLLSLFKDKPLIIYKNGTSKKEGQAPAPPTRLFQVRRNLASITRIVEVDVDANSLNSNDTFVLKLPRNNGFIWIGKGASQEEEKGAEYVADVLKCKASRIQEGKEPEEFWNSLGGRGDYQTSPLLETRAEDHPPRLYGCSNKTGRFIIEEVPGEFTQDDLAEDDVMLLDAWEQIFIWIGKDANEVEKKESVKSAKMYLETDPSGRDKRTPIVIIKQGHEPPTFTGWFLGWDSSRW | −1.3 | −1.236 | −2.062 | −1.8295 | −0.073 | down
4 | Q61391 (protein, UniProt Q61391 1-750, looked up, full-length) MGRSESQMDITDINAPKPKKKQRWTPLEISLSVLVLLLTIIAVTMIALYATYDDGICKSSDCIKSAARLIQNMDASVEPCTDFFKYACGGWLKRNVIPETSSRYSNFDILRDELEVILKDVLQEPKTEDIVAVQKAKTLYRSCINESAIDSRGGQPLLKLLPDIYGWPVASDNWDQTYGTSWTAEKSIAQLNSKYGKKVLINFFVGTDDKNSTQHIIHFDQPRLGLPSRDYYECTGIYKEACTAYVDFMISVARLIRQEQSLPIDENQLSLEMNKVMELEKEIANATTKPEDRNDPMLLYNKMTLAKLQNNFSLEVNGKSFSWSNFTNEIMSTVNINIQNEEEVVVYAPEYLTKLKPILTKYSPRDLQNLMSWRFIMDLVSSLSRNYKESRNAFRKALYGTTSETATWRRCANYVNGNMENAVGRLYVEAAFAGESKHVVEDLIAQIREVFIQTLDDLTWMDAETKKKAEEKALAIKERIGYPDDIISNENKLNNEYLELNYREDEYFENIIQNLKFSQSKQLKKLREKVDKDEWISGAAVVNAFYSSGRNQIVFPAGILQPPFFSAQQSNSLNYGGIGMVIGHEITHGFDDNGRNFNKDGDLVDWWTQQSANNFKDQSQCMVYQYGNFSWDLAGGQHLNGINTLGENIADNGGIGQAYRAYQNYVKKNGEEKLLPGLDLNHKQLFFLNFAQVWCGTYRPEYAVNSIKTDVHSPGNFRIIGTLQNSAEFADAFHCRKNSYMNPERKCRVW | −1.133 | −0.83 | −1.694 | 1.3345 | −0.675 | down
5 | Q62395 (protein, UniProt Q62395 1-81, looked up, full-length) METRALWLMLLVVLVAGSSGIAADYVGLSPSQCMVPANVRVDCGYPSVTSEQCNNRGCCFDSSIPNVPWCFKPLQETECTF | 1.185 | 1.037 | 1.294 | 0.4235 | 1.984 | up
6 | Q5HZI2 (protein, UniProt Q5HZI2 1-419, looked up, full-length) MRKTNMWFLERLRGSGENGASRGEAGDKSSKGPLYSNVLTPDKIPDFFIPPKLPSGPTEAEGQADLGPSTSEQNLASPGPRRAPRSPRLPAKLASESRSLLKAATRHVIQIESAEDWTAEEATNADPQAQGAMSLPSVPKAQTSYGFATLAESPHTRRKESLFHSEHGALAQVGSPGAGRRRAGAKGNGGDGGSREVGGALMSPSRYFSGGESDTGSSAESSPFGSPLLSRSVSLLKGFAQDSQAKVSQLKQSVGRHGSLSADDSTPDTSPGVRRRLSRRATPEPGPESGQAPRGEHTVKMGTRGSVRLLAEYEAAQARLRVRLLAAEGLYDRPCDARSINCCVGLCLVPGKLQKQRSTIIKNSRHPIFNEDFFFDGLGPASVRKLALRIKVVNKGSSLKRDTLLGEEELPLTSLLPFL | 1.158 | 0.822 | 0.518 | 1.5305 | 1.762 | up
7 | Q60673 (protein, UniProt Q60673 1-979, looked up, full-length) MRRPRRPGGSGGSGGSGGLRLLVCLLLLSGRPGGCSAISAHGCLFDRRLCSHLEVCIQDGLFGQCQAGVGQARPLLQVTSPVLQRLQGVLRQLMSQGLSWHDDLTQHVISQEMERIPRLRPPEPHPRDRSGLVPRKPGPAGELLTQGNPTGSSPAAQGFPRPAGGRSWGGSPLSSLQAELLPPLLEHLLMPPQPPHPALTYEPALLQPYLFHQFGSRDGSRGSESSSGVVGVGHLSKAEGPALFSRSASKAILGTHSGHSFGDLTGPSPAQLFQDSGLLYMAQELPVPGRARAPRLPENGGNRAEDSSEGHEEEVLGGRGEKSPPQAAQPELSLQRLTAVLAGYGVELRQLTPEQFSTLLTLLQLLPKGTGRNLEGAVNVGGADVKKTIQQMQRGDPAEALPPTPSLPGYLTASPASSEVQQVLSPGFPEPPHTPSPLGSSSVLLEKKSPLGQSQPTVVGRPSARPSAEEYGYIVTDQKPLSLVAGVRLLEILAEHVHMSSGSFINISVVGPAVTFRIRHNEQNLSLADVTQQAGLVKSELEAQTGLQILQTGVGQREEAAEVLPRQAHGISPMRSVLLTLVALAGVAGLLVALAVALCMRHHSRQRDKERLAALGPEGAHGDTTFEYQDLCRQHMATKSLFNRAEGQPEPSRVSSVSSQFSDAAQASPSSHSSTPSWCEEPAQANMDISTGHMILAYMEDHLRNRDRLAKEWQALCAYQAEPNTCAAAQDESNIKKNRHPDFLPYDHARIKLKVESSPSRSDYINASPIIEHDPRMPAYIATQGPLSHTIADFWQMVWESGCTVIVMLTPLVEDGVKQCDRYWPDEGSSLYHVYEVNLVSEHIWCEDFLVRSFYLKNLQTQETRTLTQFHFLSWPAEGTPASTRPLLDFRRKVNKCYRGRSCPIIVHCSDGAGRTGTYILIDMVLNRMAKGVKEIDIAATLEHVRDQRPGLVRSKDQFEFALTAVAEEVNAILKALPQ | 1.189 | 1.189 | 1.249 | 0.8005 | 1.265 | up
